Experimental data reported in patent US20150344570A1 (published 2015).

T1: FcγRIIa H (FcγRIIa type H, His at position 131), extracellular domain with C-terminal His tag (human, UniProt P12318 34-217)
T1 construct: extracellular domain; also called FcgRIIa H; 2aH
T1 sequence (looked up): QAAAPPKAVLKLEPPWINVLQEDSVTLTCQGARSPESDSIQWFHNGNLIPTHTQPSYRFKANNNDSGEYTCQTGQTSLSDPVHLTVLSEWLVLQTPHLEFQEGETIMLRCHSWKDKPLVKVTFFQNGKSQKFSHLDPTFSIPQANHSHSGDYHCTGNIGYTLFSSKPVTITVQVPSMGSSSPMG


Target: T1, FcγRIIa H (FcγRIIa type H, His at …)
Assay: SPR Biacore, relative binding, GpH7-B3/GpL16-k0 (HoCon Ab)=100
Method: Analysis of interaction between objective antibody and the FcγR was carried out using Biacore T100 (GE Healthcare). HBS-EP+ (GE Healthcare) was used as the running buffer, and the measurement temperature was set to 25° C. Chips produced by immobilizing the antigen peptide by the amine coupling method to a Series S Sencor Chip CM5 (GE Healthcare), or alternatively, chips produced by allowing preliminarily biotinylated antigen peptides to interact with and immobilize onto a Series S Sensor Chip SA (certified) (GE Healthcare) were used. Antibodies of interest were captured onto an antigen peptide-immobilized chip, and allowed to interact to each FcγR diluted with running buffer. To regenerate and repeatedly use the chip, the antibodies captured on the chip were washed off by reacting 10 mM glycine-HCl, pH 1.5.

Ho/Con_2aH | Binder
110 % of control | GpH7-B3 variant H268_18N/GpL16-k0 (antibody, human IgG1, kappa, both H chains mutated; also called Ho Ab) heavy: not shown light: DIVMTQSPLSLPVTPGEPASISCQASESLVHSNRNTYLHWYLQKPGQSPQLLIYKVSNRFSGVPDRFSGSGSGTDFTLKISRVEAEDVGVYYCSQNTHVPPTFGQGTKVEIERTVAAPSVFIFPPSDEQLKSGTASVVCLLNNFYPREAKVQWKVDNALQSGNSQESVTEQDSKDSTYSLSSTLTLSKADYEKHKVYACEVTHQGLSSPVTKSFNRGEC
111 % of control | GpH7-B3 variant I332_04F/GpL16-k0 (antibody, human IgG1, kappa, both H chains mutated; also called Ho Ab) heavy: not shown light: DIVMTQSPLSLPVTPGEPASISCQASESLVHSNRNTYLHWYLQKPGQSPQLLIYKVSNRFSGVPDRFSGSGSGTDFTLKISRVEAEDVGVYYCSQNTHVPPTFGQGTKVEIERTVAAPSVFIFPPSDEQLKSGTASVVCLLNNFYPREAKVQWKVDNALQSGNSQESVTEQDSKDSTYSLSSTLTLSKADYEKHKVYACEVTHQGLSSPVTKSFNRGEC
121 % of control | GpH7-B3 variant I332_13S/GpL16-k0 (antibody, human IgG1, kappa, both H chains mutated; also called Ho Ab) heavy: not shown light: DIVMTQSPLSLPVTPGEPASISCQASESLVHSNRNTYLHWYLQKPGQSPQLLIYKVSNRFSGVPDRFSGSGSGTDFTLKISRVEAEDVGVYYCSQNTHVPPTFGQGTKVEIERTVAAPSVFIFPPSDEQLKSGTASVVCLLNNFYPREAKVQWKVDNALQSGNSQESVTEQDSKDSTYSLSSTLTLSKADYEKHKVYACEVTHQGLSSPVTKSFNRGEC
126 % of control | GpH7-B3 variant I332_15Y/GpL16-k0 (antibody, human IgG1, kappa, both H chains mutated; also called Ho Ab) heavy: not shown light: DIVMTQSPLSLPVTPGEPASISCQASESLVHSNRNTYLHWYLQKPGQSPQLLIYKVSNRFSGVPDRFSGSGSGTDFTLKISRVEAEDVGVYYCSQNTHVPPTFGQGTKVEIERTVAAPSVFIFPPSDEQLKSGTASVVCLLNNFYPREAKVQWKVDNALQSGNSQESVTEQDSKDSTYSLSSTLTLSKADYEKHKVYACEVTHQGLSSPVTKSFNRGEC
118 % of control | GpH7-B3 variant K326_14T/GpL16-k0 (antibody, human IgG1, kappa, both H chains mutated; also called Ho Ab) heavy: not shown light: DIVMTQSPLSLPVTPGEPASISCQASESLVHSNRNTYLHWYLQKPGQSPQLLIYKVSNRFSGVPDRFSGSGSGTDFTLKISRVEAEDVGVYYCSQNTHVPPTFGQGTKVEIERTVAAPSVFIFPPSDEQLKSGTASVVCLLNNFYPREAKVQWKVDNALQSGNSQESVTEQDSKDSTYSLSSTLTLSKADYEKHKVYACEVTHQGLSSPVTKSFNRGEC
118 % of control | GpH7-B3 variant I332_18N/GpL16-k0 (antibody, human IgG1, kappa, both H chains mutated; also called Ho Ab) heavy: not shown light: DIVMTQSPLSLPVTPGEPASISCQASESLVHSNRNTYLHWYLQKPGQSPQLLIYKVSNRFSGVPDRFSGSGSGTDFTLKISRVEAEDVGVYYCSQNTHVPPTFGQGTKVEIERTVAAPSVFIFPPSDEQLKSGTASVVCLLNNFYPREAKVQWKVDNALQSGNSQESVTEQDSKDSTYSLSSTLTLSKADYEKHKVYACEVTHQGLSSPVTKSFNRGEC
111 % of control | GpH7-B3 variant K334_03V/GpL16-k0 (antibody, human IgG1, kappa, both H chains mutated; also called Ho Ab) heavy: not shown light: DIVMTQSPLSLPVTPGEPASISCQASESLVHSNRNTYLHWYLQKPGQSPQLLIYKVSNRFSGVPDRFSGSGSGTDFTLKISRVEAEDVGVYYCSQNTHVPPTFGQGTKVEIERTVAAPSVFIFPPSDEQLKSGTASVVCLLNNFYPREAKVQWKVDNALQSGNSQESVTEQDSKDSTYSLSSTLTLSKADYEKHKVYACEVTHQGLSSPVTKSFNRGEC
114 % of control | GpH7-B3 variant I332_06M/GpL16-k0 (antibody, human IgG1, kappa, both H chains mutated; also called Ho Ab) heavy: not shown light: DIVMTQSPLSLPVTPGEPASISCQASESLVHSNRNTYLHWYLQKPGQSPQLLIYKVSNRFSGVPDRFSGSGSGTDFTLKISRVEAEDVGVYYCSQNTHVPPTFGQGTKVEIERTVAAPSVFIFPPSDEQLKSGTASVVCLLNNFYPREAKVQWKVDNALQSGNSQESVTEQDSKDSTYSLSSTLTLSKADYEKHKVYACEVTHQGLSSPVTKSFNRGEC
103 % of control | GpH7-B3 variant K334_04F/GpL16-k0 (antibody, human IgG1, kappa, both H chains mutated; also called Ho Ab) heavy: not shown light: DIVMTQSPLSLPVTPGEPASISCQASESLVHSNRNTYLHWYLQKPGQSPQLLIYKVSNRFSGVPDRFSGSGSGTDFTLKISRVEAEDVGVYYCSQNTHVPPTFGQGTKVEIERTVAAPSVFIFPPSDEQLKSGTASVVCLLNNFYPREAKVQWKVDNALQSGNSQESVTEQDSKDSTYSLSSTLTLSKADYEKHKVYACEVTHQGLSSPVTKSFNRGEC
100 % of control | GpH7-B3 variant I336_06M/GpL16-k0 (antibody, human IgG1, kappa, both H chains mutated; also called Ho Ab) heavy: not shown light: DIVMTQSPLSLPVTPGEPASISCQASESLVHSNRNTYLHWYLQKPGQSPQLLIYKVSNRFSGVPDRFSGSGSGTDFTLKISRVEAEDVGVYYCSQNTHVPPTFGQGTKVEIERTVAAPSVFIFPPSDEQLKSGTASVVCLLNNFYPREAKVQWKVDNALQSGNSQESVTEQDSKDSTYSLSSTLTLSKADYEKHKVYACEVTHQGLSSPVTKSFNRGEC
106 % of control | GpH7-B3 variant I332_03V/GpL16-k0 (antibody, human IgG1, kappa, both H chains mutated; also called Ho Ab) heavy: not shown light: DIVMTQSPLSLPVTPGEPASISCQASESLVHSNRNTYLHWYLQKPGQSPQLLIYKVSNRFSGVPDRFSGSGSGTDFTLKISRVEAEDVGVYYCSQNTHVPPTFGQGTKVEIERTVAAPSVFIFPPSDEQLKSGTASVVCLLNNFYPREAKVQWKVDNALQSGNSQESVTEQDSKDSTYSLSSTLTLSKADYEKHKVYACEVTHQGLSSPVTKSFNRGEC
130 % of control | GpH7-B3 variant I332_09D/GpL16-k0 (antibody, human IgG1, kappa, both H chains mutated; also called Ho Ab) heavy: not shown light: DIVMTQSPLSLPVTPGEPASISCQASESLVHSNRNTYLHWYLQKPGQSPQLLIYKVSNRFSGVPDRFSGSGSGTDFTLKISRVEAEDVGVYYCSQNTHVPPTFGQGTKVEIERTVAAPSVFIFPPSDEQLKSGTASVVCLLNNFYPREAKVQWKVDNALQSGNSQESVTEQDSKDSTYSLSSTLTLSKADYEKHKVYACEVTHQGLSSPVTKSFNRGEC
119 % of control | GpH7-B3 variant I332_16H/GpL16-k0 (antibody, human IgG1, kappa, both H chains mutated; also called Ho Ab) heavy: not shown light: DIVMTQSPLSLPVTPGEPASISCQASESLVHSNRNTYLHWYLQKPGQSPQLLIYKVSNRFSGVPDRFSGSGSGTDFTLKISRVEAEDVGVYYCSQNTHVPPTFGQGTKVEIERTVAAPSVFIFPPSDEQLKSGTASVVCLLNNFYPREAKVQWKVDNALQSGNSQESVTEQDSKDSTYSLSSTLTLSKADYEKHKVYACEVTHQGLSSPVTKSFNRGEC
114 % of control | GpH7-B3 variant I332_19Q/GpL16-k0 (antibody, human IgG1, kappa, both H chains mutated; also called Ho Ab) heavy: not shown light: DIVMTQSPLSLPVTPGEPASISCQASESLVHSNRNTYLHWYLQKPGQSPQLLIYKVSNRFSGVPDRFSGSGSGTDFTLKISRVEAEDVGVYYCSQNTHVPPTFGQGTKVEIERTVAAPSVFIFPPSDEQLKSGTASVVCLLNNFYPREAKVQWKVDNALQSGNSQESVTEQDSKDSTYSLSSTLTLSKADYEKHKVYACEVTHQGLSSPVTKSFNRGEC
101 % of control | GpH7-B3 variant K326_10E/GpL16-k0 (antibody, human IgG1, kappa, both H chains mutated; also called Ho Ab) heavy: not shown light: DIVMTQSPLSLPVTPGEPASISCQASESLVHSNRNTYLHWYLQKPGQSPQLLIYKVSNRFSGVPDRFSGSGSGTDFTLKISRVEAEDVGVYYCSQNTHVPPTFGQGTKVEIERTVAAPSVFIFPPSDEQLKSGTASVVCLLNNFYPREAKVQWKVDNALQSGNSQESVTEQDSKDSTYSLSSTLTLSKADYEKHKVYACEVTHQGLSSPVTKSFNRGEC
113 % of control | GpH7-B3 variant K326_09D/GpL16-k0 (antibody, human IgG1, kappa, both H chains mutated; also called Ho Ab) heavy: not shown light: DIVMTQSPLSLPVTPGEPASISCQASESLVHSNRNTYLHWYLQKPGQSPQLLIYKVSNRFSGVPDRFSGSGSGTDFTLKISRVEAEDVGVYYCSQNTHVPPTFGQGTKVEIERTVAAPSVFIFPPSDEQLKSGTASVVCLLNNFYPREAKVQWKVDNALQSGNSQESVTEQDSKDSTYSLSSTLTLSKADYEKHKVYACEVTHQGLSSPVTKSFNRGEC
101 % of control | GpH7-B3 variant K326_06M/GpL16-k0 (antibody, human IgG1, kappa, both H chains mutated; also called Ho Ab) heavy: not shown light: DIVMTQSPLSLPVTPGEPASISCQASESLVHSNRNTYLHWYLQKPGQSPQLLIYKVSNRFSGVPDRFSGSGSGTDFTLKISRVEAEDVGVYYCSQNTHVPPTFGQGTKVEIERTVAAPSVFIFPPSDEQLKSGTASVVCLLNNFYPREAKVQWKVDNALQSGNSQESVTEQDSKDSTYSLSSTLTLSKADYEKHKVYACEVTHQGLSSPVTKSFNRGEC
100 % of control | GpH7-B3 variant K326_19Q/GpL16-k0 (antibody, human IgG1, kappa, both H chains mutated; also called Ho Ab) heavy: not shown light: DIVMTQSPLSLPVTPGEPASISCQASESLVHSNRNTYLHWYLQKPGQSPQLLIYKVSNRFSGVPDRFSGSGSGTDFTLKISRVEAEDVGVYYCSQNTHVPPTFGQGTKVEIERTVAAPSVFIFPPSDEQLKSGTASVVCLLNNFYPREAKVQWKVDNALQSGNSQESVTEQDSKDSTYSLSSTLTLSKADYEKHKVYACEVTHQGLSSPVTKSFNRGEC
101 % of control | GpH7-B3 variant I336_08L/GpL16-k0 (antibody, human IgG1, kappa, both H chains mutated; also called Ho Ab) heavy: not shown light: DIVMTQSPLSLPVTPGEPASISCQASESLVHSNRNTYLHWYLQKPGQSPQLLIYKVSNRFSGVPDRFSGSGSGTDFTLKISRVEAEDVGVYYCSQNTHVPPTFGQGTKVEIERTVAAPSVFIFPPSDEQLKSGTASVVCLLNNFYPREAKVQWKVDNALQSGNSQESVTEQDSKDSTYSLSSTLTLSKADYEKHKVYACEVTHQGLSSPVTKSFNRGEC
117 % of control | GpH7-B3 variant I332_10E/GpL16-k0 (antibody, human IgG1, kappa, both H chains mutated; also called Ho Ab) heavy: not shown light: DIVMTQSPLSLPVTPGEPASISCQASESLVHSNRNTYLHWYLQKPGQSPQLLIYKVSNRFSGVPDRFSGSGSGTDFTLKISRVEAEDVGVYYCSQNTHVPPTFGQGTKVEIERTVAAPSVFIFPPSDEQLKSGTASVVCLLNNFYPREAKVQWKVDNALQSGNSQESVTEQDSKDSTYSLSSTLTLSKADYEKHKVYACEVTHQGLSSPVTKSFNRGEC
125 % of control | GpH7-B3 variant I332_14T/GpL16-k0 (antibody, human IgG1, kappa, both H chains mutated; also called Ho Ab) heavy: not shown light: DIVMTQSPLSLPVTPGEPASISCQASESLVHSNRNTYLHWYLQKPGQSPQLLIYKVSNRFSGVPDRFSGSGSGTDFTLKISRVEAEDVGVYYCSQNTHVPPTFGQGTKVEIERTVAAPSVFIFPPSDEQLKSGTASVVCLLNNFYPREAKVQWKVDNALQSGNSQESVTEQDSKDSTYSLSSTLTLSKADYEKHKVYACEVTHQGLSSPVTKSFNRGEC
